In US20130028895A1, “EXOSOME INHIBITING AGENTS AND USES THEREOF” (priority 2011, published 2013):

Tests used:
exosomal CD20 = biological target: T1, exosomal CD20 (Homo sapiens, UniProt P11836); assay: Binding of therapeutic anti-CD20 antibodies to lymphoma exosomes (immunogold, Western blot, FACS of exosome-labelled beads); settings: purified exosome-labelled beads, Su-DHL-4
T1 construct: endogenous in cells; host or cells: exosomes purified from culture supernatants of Balm-3 and Su-DHL-4 lymphoma cells
T1 sequence (P11836 1-297): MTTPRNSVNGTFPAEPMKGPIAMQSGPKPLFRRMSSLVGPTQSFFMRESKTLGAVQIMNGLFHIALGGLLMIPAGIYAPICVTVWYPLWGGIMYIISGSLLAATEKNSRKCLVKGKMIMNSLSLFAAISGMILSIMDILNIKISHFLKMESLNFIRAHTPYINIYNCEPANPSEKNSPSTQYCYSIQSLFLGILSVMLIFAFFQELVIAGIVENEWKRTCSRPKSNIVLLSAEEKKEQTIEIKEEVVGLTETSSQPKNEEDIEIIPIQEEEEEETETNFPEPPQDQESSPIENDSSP
Experimental: Cells or exosomes coupled to beads were stained with fluorescence-labelled monoclonal antibodies, and analyzed by flow cytometry.
FACS analysis of exosomal surface proteins was carried out after exosomes were coupled to latex beads as previously described (Thery, C., Zitvogel, L., & Amigorena, S, Nat. Rev. Immunol. 2, 569-579 (2002)). Exosomes (40 μg protein) were incubated in 30 μl PBS with 4 μm aldehyde/sulfate latex beads (3 μl of a 4% w/v suspension, Invitrogen) for 15 min., and again for 2 h after addition of 500 μl PBS at room temperature (RT) under constant agitation. The reaction was stopped by addition of 100 μl 1M glycine for 30 min. at RT with gentle agitation, followed by three washes in PBS/0.5% w/v bovine serum albumin (BSA). Antibody staining followed the protocols for antibody staining of cells in suspension.
Detection of membrane-bound fluorescence were performed using standard protocols for flow cytometry. 1×10^5 cells per condition were washed once with PBS and thereafter incubated for 30 min at room temperature and protected from light with either primary antibody or isotype control (both 1:50).

lymphoma cells = assay: CDC susceptibility: inhibitors plus rituximab with 10% active human complement; format: cell-based; settings: concomitant incubation with rituximab
Experimental: (§1) […] lymphoma cells were exposed to inhibitors of exosome synthesis or release at non-toxic dose ranges. Exosomes were harvested after a 24 h incubation period, and yields were measured by AChE activity (a) and detection of flotillin-2 by Western Blot (b). […] Significant differences to controls without inhibitors (one-way ANOVA with Dunn's post test) are marked with asterices, equivalent results were obtained for the cell lines Balm-3 and Su-DHL-4 (FIG. 10).
(§2) After 24 hours at 37° C., cell viability was determined in triplicates by […] staining as described before. The effect on viability was expressed as the ratio of values from treated versus untreated samples, i.e. specific viability=100× absorbance with antibody treatment/absorbance of untreated control. To detect complement decomposition of C3 in supernatant of exosome coupled to beads, monoclonal antibody 13/15 was coated onto 96-well Medisorp plates (NUNC, Medisorp, Thermo Fisher Scientific) blocked, and washed. Subsequently, appropriately diluted supernatant of exosome:bead complex samples were added to the plate for 60 minutes, washed, and incubated with rabbit anti-C3d for 60 min. After washing, finally anti-rabbit Fc conjugated to horseradish peroxidase (anti-rFc-HRP) was added for 60 minutes, before a further washing and addition of TMB substrate solution. […]

OCI-Ly1 lymphoma cells = assay: Inhibition of exosome shedding by inhibitors (AChE activity, flotillin-2 Western blot); format: cell-based, human; settings: non-toxic dose ranges, 24 h
Experimental: as §1
5×10^7 lymphoma cells were exposed to inhibitors of exosome synthesis or release at non-toxic dose ranges. Exosomes were harvested after a 24 h incubation period, and yields were measured by AChE activity. Significant differences to controls without inhibitors (one-way ANOVA) are marked with asterices.
(§3) Exosomes were prepared by differential centrifugation according to standard protocols (modified according to Valadi, H. et al. Nat. Cell Biol. 9, 654-659 (2007)). […] Exosomes were quantified by measuring whole protein according to standard protocols (BioRad-DC-Protein-Assay), Western blot detecting flotillin-2 in comparison with whole cells or control exosome preparations, and acetyl-cholin-esterase (AChE) activity as previously described (Savina, A., Fader, C. M., Damiani, M. T., & Colombo, M. I. Traffic. 6, 131-143 (2005)).

ABCA3 = assay: Exosome release after silencing of ABCA3 by lentiviral shRNA; format: cell-based, human
Experimental: (§4) The effects were measured after incubation for 48 h by AChE activity (b, cell line Balm-3, significance tested by one-way ANOVA), whole exosomal protein (c, significance tested by Student's two-sample t-test), as well as flotillin-2 detection from exosome preparations in the cell culture supernatant (d). Addressing ABCA3 overexpression, 4×10^7 cells of HEK293A, the stable ABCA3 overexpressing cell line HEK293A-ABCA3, as well as K562 cells were incubated for 17 h in 36 ml of exosome-free cell culture medium, and exosome yields measured as total exosomal protein.
As small molecules were used at the concentrations indicated: mTOR inhibitor rapamycin, COX-2 inhibitor indometacin, cholesterol synthesis inhibitor U18666A (all from Sigma). As fluorescent dyes CalceinAM and PKH26 were applied (both from Molecular Probes). […]
as §3

lymphoma cell lines = assay: CDC susceptibility after RNAi silencing of ABCA3; format: cell-based, human; settings: rituximab in the presence of complement, vs lv GFP control
Experimental: as §4
as §2, with “min.” for “min. After washing, finally anti-rabbit Fc conjugated to horseradish peroxidase (anti-rFc-HRP) was added for 60 minutes, before a further washing and addition of TMB substrate solution.”

Question: “GA101: therapeutic anti-CD20 monoclonal antibody (type II, Roche)” was tested. Which “exosomal binding by FACS” value (exosomal CD20) did it give?
Answer: Exosomal binding

Question: Which “CDC susceptibility / cytolytic activity of rituximab” value (lymphoma cells) does the source give for `CCN(CC)CCO[C@H]1CC[C@@]2(C)C(=CC[C@@H]3[C@@H]2CC[C@]2(C)C(=O)CC[C@@H]32)C1` [U18666A] here?
Answer: Enhanced CDC Susceptibility

Question: What about the “exosome shedding / release” value (OCI-Ly1 lymphoma cells) of the same molecule?
Answer: Inhibition of Exosome Shedding

B1: anti-ABCA3 shRNA: lentiviral shRNA silencing ABCA3, sequences SEQ ID NO: 1 and SEQ ID NO: 2 cloned into pLKO.1 (nucleic acid)
chain 1: CCGGGCCCAGCTCATTGGGAAATTTCTCGAGAAATTTCCCAATGAGCTGGGCTTTTTG
chain 2: AATTCAAAAAAAATTTCCCAATGAGCTGGGCCTCGAGGCCCAGCTCATTGGGAAATTT
modifications: the letters are possibly those of the target site
Question: What does the source list for B1?
Answer: exosome release vs mock transfected controls (ABCA3; 48 h, AChE activity, whole exosomal protein, flotillin-2, Balm-3): decreased exosome release; reduction of exosome release (ABCA3; Balm-3, Su-DHL-4 and OCI-Ly1): approximately 50%; susceptibility to CDC (lymphoma cell lines; listed as lentiviral RNAi): significantly increased the susceptibility of the lymphoma cells to CDC-mediated lysis; susceptibility to CDC (lymphoma cell lines; listed as shRNA against ABCA3): increased susceptibility of lymphoma cell lines to CDC
